According to paper PMC9559756:

What was measured:
[1] = biological target: untagged-cpAQP1aa-243 (C-terminally truncated aquaporin 1aa from Anabas testudineus, climbing perch) (Anabas testudineus (climbing perch)); test: crystal structure; untagged-cpAQP1aa-243, hanging-drop vapor diffusion, 4°C; reservoir 100 mM Tris-HCl pH 7.8, 5% γ-PGA, 30% PEG400, D-sorbitol additive; space group P42_(1)2, one monomer in the asymmetric unit; 1.9 Å
[2] = biological target: untagged-cpAQP1aa-243 (C-terminally truncated aquaporin 1aa from Anabas testudineus, climbing perch) (Anabas testudineus (climbing perch)); test: crystal structure; untagged-cpAQP1aa-243, hanging-drop vapor diffusion, 4°C; reservoir 300 mM lithium sulfate, 100 mM ADA pH 6.5, 30% PEG400, dextran sulfate additive; space group C222_(1), four monomers in the asymmetric unit; 3.5 Å

untagged-cpAQP1aa-243 (C-terminally truncated aquaporin 1aa from Anabas testudineus, climbing perch) (domain or fragment)
stoichiometry N [1]: 4 | stoichiometry N [2]: 4
